According to the nanobody polyreactivity screen of Harvey et al. (2022):

Assay: yeast display, Sf9 membrane polyspecificity reagent, FACS + sequencing; frameworks hold sequencing errors
How it was run: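 Galactose-induced (36–48 hours) yeast carrying a synthetic nanobody display library were exposed to 10% biotinylated, detergent-solubilized Sf9 membrane reagent at 4 °C for 1 hour. FACS followed streptavidin microbead enrichment, using low and high (top ~1%) gates for expression (anti-HA) and reagent binding (streptavidin). Colony PCR, MiSeq 2 × 250 sequencing and CDR-length filtering followed. Labels for polyreactivity reflect the gate of origin.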

| Sequence | polyreactivity (PSR sort gate) |
| --- | --- |
| QVQLVESGGGLVQAGGSLRLSCADSGLTFYDYAMGWYRQAPGKERELVADIDFNGGSTSYADSVKGRFTISRDNAKNTVYLQMNSLKPEDTAVYYCNTRDRGDVVTGLDYWGQGTQVTVSS | low polyreactivity |
| QVQLVESGGGLVQAGGSLRLSCADSGNIIWGNAIGWYRQAPGKERELVAAISRRSGSTYYADSVKGRFTISRDNAKNTVYLQMNSLKPEDTAVYYCNTAGRVGTYDYWGQGTQVTVSS | high polyreactivity |
| QVQLVESGGGLVQAGGSLRLSCADSGNTFYGYAMGWSRQSPGTERELVASITLSGDSTYYADSVKGRFTISRDNAKNTVYLQMNSLKPEDTAVYYCAGVYTYPLGYYHYTYDYWGQGTQVTVSS | low polyreactivity |
| QVQLVESGGGLVQAGGSLRLSCADSGRIFLTNAMGWYRQAPGKERELGATITSGGSTNYADSVKGRFTISRDNAKNTVYLQMNSLKPVDTAVYDCAADWEFGFDYWGQGTQVTVSS | low polyreactivity |
| QVQLVESGGGLVQAGGSLRLSCADSGRIFVAYAMGWYRQAPGKERELFADITWSGDITYYADSVKGRFTISRDNAKNTVYLQMNSLKPEDTAVYYCAADYHRRRTDYDYWGQVTQVTVSS | low polyreactivity |
| QVQLVESGGGLVQAGGSLRLSCADSGRIFVLYAMGWYRQAPGKERELVAAISRSSTSTYYADSVKGRFTISRDNAKNTGYLQMNSLKPEDTAVYYCAARGRYAYPRYGYYPVNYWGQGTQVTVSS | high polyreactivity |
| QVQLVESGGGLVQAGGSLRLSCADSGRIFWTNAMVWYRQAPGKERELVAAISYNGASTFYADSVKGRFTISRDNAKNTVSLQMNSLKPEDTAVYYCNAYSSRYRYNYWGQGTQVTVSS | high polyreactivity |
| QVQLVESGGGLVQAGGSLRLSCADSGRILTFNAMGWYRQAPGKERELVASISNGGSTNYADSVKGRFTISRDNAKNTVYLQMNSLKPEDTAVYYCDADWRQGMWYGYYYWGQGTQVTVSS | low polyreactivity |
| QVQLVESGGGLVQAGGSLRLSCADSGRTFYQNAKGWYRQAPGKEREFVAAISWSSGSTYYADSVKGRFTISRDYAKNTVYLQMNSLKPEDTAVYYCAAYTSFPYIWYGYWGQGTQVTVSS | high polyreactivity |
| QVQLVESGGGLVQAGGSLRLSCADSGRTIPFYAMGWYRQAPGKERELVAAISSSAGRTYYADSVKGRFTISRDNAKNTVSLQMNSLKPEDTAVYYCAARLYGRYRYDYWGQGTQVTVSS | low polyreactivity |
| QVQLVESGGGLVQAGGSLRLSCADSGSIFEVYAMGWYRQAAGKERELVAAINYTGGSTYYADSVKGRFTISRDNAKITVYLQMNSLKPEDTAVYYCARDTSGNGTRYDYWGQGTQVTVSS | low polyreactivity |
| QVQLVESGGGLVQAGGSLRLSCADSGSIFLPYAMGCYRKAPGKERELVAAITWGGDSTYADSVKGRFTISRDNAKNTVYLQMNSQKPEDTAVYYCAAGAGFESDYWGQGTQVTVSS | low polyreactivity |
| QVQLVESGGGLVQAGGSLRLSCADSGSIFQYNTMGWYRQAPGKERELVADINGRGGSTYYADSVKGRFTISRDNAKNTVYLQMNSLKPEDTAVYYCAVEGVSTYLWTSYGYWGQGTQVTVSS | low polyreactivity |
| QVQLVESGGGLVQAGGSLRLSCADSGSIFYRYAMGWYRQAPGKERELGAAISQSGGSTYYADSVKGRFTISRDNAKNTVYLQMNSLKPEDTAVYYCQLIRRGHDYWGQGTQVTVSS | high polyreactivity |
| QVQLVESGGGLVQAGGSLRLSCADSGSIGLYAMGWYRQAPGKETELVAVISRNGGSTYYADSVKGRFTISRDNAKNTVYLQMNSLKPEDTAVYYCAKRRLERGTGDYWGQGTQVTVSS | high polyreactivity |
| QVQLVESGGGLVQAGGSLRLSCADSGSIQYYAMGWYRQAPGKERELVAAITWSGVSTSYADSVKGRFTISRDNAKNTVYLQMNRLKPEDTAVYYCNKDPGTLYGDLDSWGQGTQVTVSS | low polyreactivity |
| QVQLVESGGGLVQAGGSLRLSCADSGSTFDDNAMGWYRQAPGKDRELVASITYRGGSTYYADSVKGRFTISRDNAKNTVYLQMNSLKPEDTAVYYCAKGHYFKYDYWGQGTQVTVSS | low polyreactivity |
